T1: human IL-11Rα (form used in the assay not stated) (human, UniProt Q14626 23-363, limits assumed)
T1 construct: also called hIL-11R; hIL-11Rα
T1 sequence: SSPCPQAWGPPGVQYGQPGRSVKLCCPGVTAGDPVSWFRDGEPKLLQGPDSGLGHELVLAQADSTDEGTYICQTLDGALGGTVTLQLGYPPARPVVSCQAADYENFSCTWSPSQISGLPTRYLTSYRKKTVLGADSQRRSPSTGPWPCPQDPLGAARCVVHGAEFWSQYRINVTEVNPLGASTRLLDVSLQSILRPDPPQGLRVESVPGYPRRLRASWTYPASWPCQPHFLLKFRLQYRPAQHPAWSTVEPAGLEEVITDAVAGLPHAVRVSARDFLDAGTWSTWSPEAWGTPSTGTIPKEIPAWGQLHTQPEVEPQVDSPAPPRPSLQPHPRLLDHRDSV

T2: human IL-11Rα on transfected cells (human, UniProt Q14626 23-422)
T2 sequence: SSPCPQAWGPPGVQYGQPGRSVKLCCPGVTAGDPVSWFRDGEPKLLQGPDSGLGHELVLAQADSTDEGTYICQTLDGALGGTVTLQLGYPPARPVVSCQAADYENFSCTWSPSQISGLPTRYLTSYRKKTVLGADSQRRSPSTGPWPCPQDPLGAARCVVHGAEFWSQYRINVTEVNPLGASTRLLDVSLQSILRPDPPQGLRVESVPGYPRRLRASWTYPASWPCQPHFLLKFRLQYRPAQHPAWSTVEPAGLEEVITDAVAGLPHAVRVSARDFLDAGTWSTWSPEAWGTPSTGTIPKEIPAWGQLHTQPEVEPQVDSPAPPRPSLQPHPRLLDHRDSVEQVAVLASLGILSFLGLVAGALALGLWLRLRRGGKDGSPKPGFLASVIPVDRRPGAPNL

B1: hu8E2-TS-101 (antibody, V domains shown)
VH: EVQLLESGGGLVQPGGSLRLSCAASGFTFSWYSMTWVRQAPGKGLEWVSSIVPWGDLTQYADSVKGRFTISRDNSKNTLYLQMNSLRAEDTAVYYCAKGPGWGSFDLWGRGTLVTVSS
VL: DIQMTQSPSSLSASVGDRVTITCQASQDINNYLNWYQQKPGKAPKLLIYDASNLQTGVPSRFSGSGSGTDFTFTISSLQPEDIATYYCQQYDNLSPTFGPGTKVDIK
B2: hu8E2-TS-107 (antibody, V domains shown)
VH: EVQLLESGGGLVQPGGSLRLSCAASGFTFSWYSMTWVRQAPGKGLEWVSSIVPWGDFTQYADSVKGRFTISRDNSKNTLYLQMNSLRAEDTAVYYCAKGPGWGSFDLWGRGTLVTVSS
VL: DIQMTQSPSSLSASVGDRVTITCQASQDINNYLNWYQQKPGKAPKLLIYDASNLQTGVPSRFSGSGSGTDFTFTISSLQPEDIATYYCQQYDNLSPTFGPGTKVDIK
B3: hu8E2-TS-129 (antibody, V domains shown)
VH: EVQLLESGGGLVQPGGSLRLSCAASGFTFSWYSMTWVRQAPGKGLEWVSSIVPSGGHTQYADSVKGRFTISRDNSKNTLYLQMNSLRAEDTAVYYCAKPEDWGMFDLWGRGTLVTVSS
VL: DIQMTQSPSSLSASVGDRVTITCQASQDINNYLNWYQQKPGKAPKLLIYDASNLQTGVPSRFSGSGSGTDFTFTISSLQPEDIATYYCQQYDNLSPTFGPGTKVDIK
B4: hu8E2-TS-222 (antibody, V domains shown)
VH: EVQLLESGGGLVQPGGSLRLSCAASGFTFSWYSMTWVRQAPGKGLEWVSSIVPSGGHTQYADSVKGRFTISRDNSKNTLYLQMNSLRAEDTAVYYCAKGPGWGTFAYWGRGTLVTVSS
VL: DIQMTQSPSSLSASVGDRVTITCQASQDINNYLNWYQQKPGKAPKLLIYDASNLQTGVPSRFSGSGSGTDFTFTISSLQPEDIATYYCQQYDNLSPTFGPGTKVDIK
B5: hu8E2-TS-303 (antibody, V domains shown)
VH: EVQLLESGGGLVQPGGSLRLSCAASGFTFSWYSMTWVRQAPGKGLEWVSSIVPSGGHTQYADSVKGRFTISRDNSKNTLYLQMNSLRAEDTAVYYCAKGPGWGSFDLWGRGTLVTVSS
VL: DIQMTQSPSSLSASVGDRVTITCQASQDVDYWVEWYQQKPGKAPKLLIYDASNLQTGVPSRFSGSGSGTDFTFTISSLQPEDIATYYCQQYDNLSPTFGPGTKVDIK
B6: hu8E2-TS-221 (antibody, V domains shown)
VH: EVQLLESGGGLVQPGGSLRLSCAASGFTFSWYSMTWVRQAPGKGLEWVSSIVPSGGHTQYADSVKGRFTISRDNSKNTLYLQMNSLRAEDTAVYYCAKGPGWGSFWYWGRGTLVTVSS
VL: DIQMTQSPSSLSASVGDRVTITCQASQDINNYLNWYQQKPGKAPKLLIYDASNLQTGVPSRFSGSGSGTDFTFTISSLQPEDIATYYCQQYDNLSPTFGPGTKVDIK
B7: hu8E2-TS-108 (antibody, V domains shown)
VH: EVQLLESGGGLVQPGGSLRLSCAASGFTFSWYSMTWVRQAPGKGLEWVSSIVPWGTLTQYADSVKGRFTISRDNSKNTLYLQMNSLRAEDTAVYYCAKGPGWGSFDLWGRGTLVTVSS
VL: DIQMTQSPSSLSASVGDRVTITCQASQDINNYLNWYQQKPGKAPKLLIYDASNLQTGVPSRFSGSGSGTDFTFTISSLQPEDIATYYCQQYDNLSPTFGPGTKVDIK
B8: hu8E2-TS-136 (antibody, V domains shown)
VH: EVQLLESGGGLVQPGGSLRLSCAASGFTFSWYSMTWVRQAPGKGLEWVSSIVPSGGHTQYADSVKGRFTISRDNSKNTLYLQMNSLRAEDTAVYYCAKPLDWGRFDLWGRGTLVTVSS
VL: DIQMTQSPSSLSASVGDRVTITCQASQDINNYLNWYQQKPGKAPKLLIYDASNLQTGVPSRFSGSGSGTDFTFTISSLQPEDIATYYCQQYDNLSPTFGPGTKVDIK
B9: hu8E2-TS-214 (antibody, V domains shown)
VH: EVQLLESGGGLVQPGGSLRLSCAASGFTFSWYSMTWVRQAPGKGLEWVSSIVPSGGHTQYADSVKGRFTISRDNSKNTLYLQMNSLRAEDTAVYYCAKGPGWGSFWFWGRGTLVTVSS
VL: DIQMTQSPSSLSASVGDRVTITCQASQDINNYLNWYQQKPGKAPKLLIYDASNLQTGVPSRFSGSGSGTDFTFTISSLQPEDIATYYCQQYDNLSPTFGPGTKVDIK
B10: hu8E2-TS-135 (antibody, V domains shown)
VH: EVQLLESGGGLVQPGGSLRLSCAASGFTFSWYSMTWVRQAPGKGLEWVSSIVPSGGHTQYADSVKGRFTISRDNSKNTLYLQMNSLRAEDTAVYYCAKPLDWGLFDLWGRGTLVTVSS
VL: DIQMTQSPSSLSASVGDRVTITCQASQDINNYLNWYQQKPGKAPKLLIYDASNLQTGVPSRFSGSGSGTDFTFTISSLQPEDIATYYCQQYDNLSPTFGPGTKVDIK
B11: hu8E2-TS-224 (antibody, V domains shown)
VH: EVQLLESGGGLVQPGGSLRLSCAASGFTFSWYSMTWVRQAPGKGLEWVSSIVPSGGHTQYADSVKGRFTISRDNSKNTLYLQMNSLRAEDTAVYYCAKGPGWGSFWTWGRGTLVTVSS
VL: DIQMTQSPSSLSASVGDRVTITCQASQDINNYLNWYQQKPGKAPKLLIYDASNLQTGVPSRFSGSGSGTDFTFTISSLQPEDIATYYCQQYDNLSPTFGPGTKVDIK
B12: hu8E2-TS-104 (antibody, V domains shown)
VH: EVQLLESGGGLVQPGGSLRLSCAASGFTFSWYSMTWVRQAPGKGLEWVSSIVPWGTITQYADSVKGRFTISRDNSKNTLYLQMNSLRAEDTAVYYCAKGPGWGSFDLWGRGTLVTVSS
VL: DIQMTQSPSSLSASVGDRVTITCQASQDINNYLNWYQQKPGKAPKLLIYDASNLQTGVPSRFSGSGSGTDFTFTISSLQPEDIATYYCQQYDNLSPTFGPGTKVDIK
B13: hu8E2-TS-143 (antibody, V domains shown)
VH: EVQLLESGGGLVQPGGSLRLSCAASGFTFSWYSMTWVRQAPGKGLEWVSSIVPSGGHTQYADSVKGRFTISRDNSKNTLYLQMNSLRAEDTAVYYCAKPHDWGLFDLWGRGTLVTVSS
VL: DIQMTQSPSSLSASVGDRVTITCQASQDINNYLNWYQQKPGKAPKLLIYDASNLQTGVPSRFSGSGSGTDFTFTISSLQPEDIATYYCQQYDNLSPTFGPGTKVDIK
B14: hu8E2-TS-151 (antibody, V domains shown)
VH: EVQLLESGGGLVQPGGSLRLSCAASGFTFSWYSMTWVRQAPGKGLEWVSSIVPSGGHTQYADSVKGRFTISRDNSKNTLYLQMNSLRAEDTAVYYCAKPHDWGRFDLWGRGTLVTVSS
VL: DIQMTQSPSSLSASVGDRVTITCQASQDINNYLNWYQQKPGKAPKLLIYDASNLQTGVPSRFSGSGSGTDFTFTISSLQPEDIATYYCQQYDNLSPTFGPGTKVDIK
B15: hu8E2-TS-218 (antibody, V domains shown)
VH: EVQLLESGGGLVQPGGSLRLSCAASGFTFSWYSMTWVRQAPGKGLEWVSSIVPSGGHTQYADSVKGRFTISRDNSKNTLYLQMNSLRAEDTAVYYCAKGPGWGSFWEWGRGTLVTVSS
VL: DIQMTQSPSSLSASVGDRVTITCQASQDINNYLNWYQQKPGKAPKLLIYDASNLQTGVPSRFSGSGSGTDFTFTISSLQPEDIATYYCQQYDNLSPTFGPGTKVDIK
B16: hu8E2-TS-115 (antibody, V domains shown)
VH: EVQLLESGGGLVQPGGSLRLSCAASGFTFSWYSMTWVRQAPGKGLEWVSSIVPHGDLTQYADSVKGRFTISRDNSKNTLYLQMNSLRAEDTAVYYCAKGPGWGSFDLWGRGTLVTVSS
VL: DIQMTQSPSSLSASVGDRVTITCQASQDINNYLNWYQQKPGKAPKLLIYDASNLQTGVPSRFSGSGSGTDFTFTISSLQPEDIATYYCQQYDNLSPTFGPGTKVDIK
B17: hu8E2-TS-133 (antibody, V domains shown)
VH: EVQLLESGGGLVQPGGSLRLSCAASGFTFSWYSMTWVRQAPGKGLEWVSSIVPSGGHTQYADSVKGRFTISRDNSKNTLYLQMNSLRAEDTAVYYCAKPVDWGRFDLWGRGTLVTVSS
VL: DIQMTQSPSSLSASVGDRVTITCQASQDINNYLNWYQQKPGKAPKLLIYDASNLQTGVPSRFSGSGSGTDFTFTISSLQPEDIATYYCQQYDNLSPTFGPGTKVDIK
B18: hu8E2-TS-140 (antibody, V domains shown)
VH: EVQLLESGGGLVQPGGSLRLSCAASGFTFSWYSMTWVRQAPGKGLEWVSSIVPSGGHTQYADSVKGRFTISRDNSKNTLYLQMNSLRAEDTAVYYCAKPNDWGLFDLWGRGTLVTVSS
VL: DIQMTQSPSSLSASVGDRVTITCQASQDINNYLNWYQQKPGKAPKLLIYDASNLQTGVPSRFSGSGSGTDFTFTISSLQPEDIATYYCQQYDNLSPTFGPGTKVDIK
B19: hu8E2-TS-103 (antibody, V domains shown)
VH: EVQLLESGGGLVQPGGSLRLSCAASGFTFSWYSMTWVRQAPGKGLEWVSSIVPYGDLTQYADSVKGRFTISRDNSKNTLYLQMNSLRAEDTAVYYCAKGPGWGSFDLWGRGTLVTVSS
VL: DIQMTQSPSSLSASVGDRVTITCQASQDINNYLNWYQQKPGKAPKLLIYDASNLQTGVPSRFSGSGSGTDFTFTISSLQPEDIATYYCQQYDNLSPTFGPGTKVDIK
B20: hu8E2-TS-215 (antibody, V domains shown)
VH: EVQLLESGGGLVQPGGSLRLSCAASGFTFSWYSMTWVRQAPGKGLEWVSSIVPSGGHTQYADSVKGRFTISRDNSKNTLYLQMNSLRAEDTAVYYCAKGPGWGSFWQWGRGTLVTVSS
VL: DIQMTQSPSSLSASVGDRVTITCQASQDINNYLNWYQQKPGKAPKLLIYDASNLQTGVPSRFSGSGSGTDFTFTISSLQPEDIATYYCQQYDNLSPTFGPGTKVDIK
B21: hu8E2-TS-134 (antibody, V domains shown)
VH: EVQLLESGGGLVQPGGSLRLSCAASGFTFSWYSMTWVRQAPGKGLEWVSSIVPSGGHTQYADSVKGRFTISRDNSKNTLYLQMNSLRAEDTAVYYCAKPEDWGLFDLWGRGTLVTVSS
VL: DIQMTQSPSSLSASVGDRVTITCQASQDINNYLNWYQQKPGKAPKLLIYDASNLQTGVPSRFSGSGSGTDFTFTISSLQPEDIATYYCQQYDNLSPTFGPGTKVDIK
B22: hu8E2-TS-156 (antibody, V domains shown)
VH: EVQLLESGGGLVQPGGSLRLSCAASGFTFSWYSMTWVRQAPGKGLEWVSSIVPSGGHTQYADSVKGRFTISRDNSKNTLYLQMNSLRAEDTAVYYCAKPEDWGRFDLWGRGTLVTVSS
VL: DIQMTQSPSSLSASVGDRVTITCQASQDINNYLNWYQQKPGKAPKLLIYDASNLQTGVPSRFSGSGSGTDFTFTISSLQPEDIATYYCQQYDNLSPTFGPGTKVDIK

What was measured:
[1] = biological target: T1, human IL-11Rα (form used in the assay …); experiment: Biacore, pH 8.5, 37°C
[2] = biological target: T2, human IL-11Rα on transfected cells; experiment: cell-based or functional assay

| Binder | Kd [1] | Fold increase in potency relative to 8E2 [2] | IC50 [2] |
| --- | --- | --- | --- |
| B1 | 0.785 nM | 2.1 fold | 0.19 µg/mL |
| B2 | 1.29 nM | 7.4 fold | 0.2 µg/mL |
| B3 | 0.63 nM | 4.7 fold | 0.2 µg/mL |
| B4 | 1.91 nM | 3.3 fold | 0.16 µg/mL |
| B5 | 4.09 nM | 1.4 fold | 0.35 µg/mL |
| B6 | 0.634 nM | 2.6 fold | 0.2 µg/mL |
| B7 | 1.93 nM | 12.7 fold | 0.12 µg/mL |
| B8 | 0.232 nM | 6 fold | 0.16 µg/mL |
| B9 | 1.11 nM | 1.6 fold | 0.31 µg/mL |
| B10 | 0.525 nM | 4.8 fold | 0.2 µg/mL |
| B11 | 1.91 nM | 1.2 fold | 0.39 µg/mL |
| B12 | 0.995 nM | 5.2 fold | 0.28 µg/mL |
| B13 | 0.416 nM | 1.6 fold | 0.39 µg/mL |
| B14 | 0.242 nM | 2.4 fold | 0.26 µg/mL |
| B15 | 1.39 nM | 2.7 fold | 0.19 µg/mL |
| B16 | 0.735 nM | 5.7 fold | 0.26 µg/mL |
| B17 | 0.513 nM | 4.1 fold | 0.23 µg/mL |
| B18 | 0.471 nM | 1.5 fold | 0.42 µg/mL |
| B19 | 0.497 nM | 4.5 fold | 0.33 µg/mL |
| B20 | 1.85 nM | 1.5 fold | 0.34 µg/mL |
| B21 | 0.52 nM | 4.3 fold | 0.22 µg/mL |
| B22 | 0.631 nM | 4.9 fold | 0.13 µg/mL |
